# Measurements reported in patent US7053044B1, “Artificial peptides having surface activity and the use thereof in the preparation of artificial surfactant” (Chiesi Farmaceutici S.p.A., priority 1999, dated 2006).
# Ends that are not written are not given here.
# What was measured:
# [1] = Preparation of peptide/lipid mixtures (attainable lipid concentration); type: physicochemical; conditions: polypeptide/lipid ratio of 0.03
# Procedure: DPPC, PG and PA were all purchased from Sigma Chemical Co. (St Louis, Mo.). The lipids, dissolved in chloroform/methanol 98:2 (v/v), were mixed in the proportions DPPC:PG:PA 68:22:9 (w/w/w) or DPPC/PG 7:3 (w/w). Surfactant preparations were prepared by adding SP-C(LKS) alone or SP-C(LKS) and SP-B, to each of the lipid mixtures, at total polypeptide/lipid weight ratios of 0–0.05. The mixtures were evaporated under nitrogen and resuspended in 150 mmol/l NaCl or in 10 mmol/l Hepes buffer pH 6,9 containing 140 mmol/l NaCl and 2.0 mmol/l CaCl2, at lipid concentrations of 10–80 mg/ml. Repeated freezing and sonication (50 W, 48 kHz) were performed until homogeneous suspensions were achieved. In some cases the final suspensions were incubated at 45° C. for 1 h.
# [2] = Peptide secondary structure by circular dichroism (CD) spectroscopy; type: physicochemical
# Procedure: Peptide secondary structure was investigated using circular dichroism (CD) spectroscopy (Jasco-720 Jasco, Japan). After solubilisation with triflouroethanol (TFE) spectra were recorded from 260 to 184 nm with a scan speed of 20 nm/min and a resolution of 2 data points/nm. The residual molar ellipticy was calculated and expressed in kdeg×cm^2/dmol. Molar ellipticities at 208 and 222 nm were utilised for estimating the content of helical structure (Barrow, C. J. et al. (1992) J. Mol. Biol. 225, 1075–1093).
# [3] = SDS-PAGE (oligomer formation); type: physicochemical
# Source text: The purity of the peptide was checked by sodium-dodecylsulphate (SDS) polyacrylamide gel electrophoresis (PAGE) (Phast-system, Pharmacia, Sweden) and by reversed phase high performance liquid chromatography (HPLC), using a C18 column and a linear gradient of 60% aqueous methanol/0.1% TFA and isopropanol/0.1% TFA (Gustafsson, M. et al. (1997) Biochem. J. 326, 799–806).
# [4] = Nilsson, G. et al. (1998) Eur. J. Biochem. 255, 116–124; cited from earlier work
# [5] = Surface film stability, captive bubble system; type: physicochemical; conditions: surfactant mixtures, samples containing 5% of peptide
# Procedure: In an even more preferred embodiment of the invention, surfactant mixtures containing the peptide in which palmitoyl chains are O-covalently linked to the Ser residues should be used. […] In the samples containing 5% of dipalmitoylated peptide, the γmin was below 1.5 mN/m and the films very stable, as the surface tension increased by less than 0.5 mN/m within 10 min at constant bubble volume.
# [6] = target: the molecule itself; assay: SDS-PAGE, self-association (oligomerisation)
molecule,measurement,setting,value
"FGIPSSPVHLKRLLILKLLLLKILLLKLGALLMGL [SP-C(LKS), SP-C analogue: Val 16–28 replaced with Leu, Lys at 17, 22, 27, Cys 5 and 6 replaced with Ser]",lipid concentration of peptide/lipid mixture that could be made,[1],80 mg/mL
same,α-helical content,"[2]; solubilised in TFE, estimated from the 208 nm and 222 nm minima",approximately 75%
same,secondary structure on dilution,"[2]; stepwise dilution with H2O until 12% TFE, peptide solubilized in neat TFE",remained stable
same,SDS-PAGE pattern (oligomerisation),[3],single band
SP-C(Leu): reference peptide; transmembranous SP-C analogue with all helical Val residues replaced with Leu (Nilsson et al.) (FGIPSSPVLKRLLILLLLLLLILLLILGALLMGL),highest concentration of lipid-peptide mixture that can be prepared / solubilized,[4],≤ 20 mg/mL
same,γmin (captive bubble system),[5],approx. 5 mN/m
same,SDS-PAGE pattern (oligomerisation),[3],forms oligomers
"FGIPSSPVHLKRLLILKLLLLKILLLKLGALLMGL (ends and bridges not checked, The non-acylated form was run in SDS-PAGE; also called analogue of SP-C) [SP-C(LKS)]",binding result,[6],no binding
